Experiment [1] concerns the target T1, human CNTF receptor α-component on MG87/CNTFR fibroblasts (human, UniProt P26992 23-342).
T1 construct: whole, on cells; also called CNTFRα; MG87/huCNTFR
T1 sequence (looked up): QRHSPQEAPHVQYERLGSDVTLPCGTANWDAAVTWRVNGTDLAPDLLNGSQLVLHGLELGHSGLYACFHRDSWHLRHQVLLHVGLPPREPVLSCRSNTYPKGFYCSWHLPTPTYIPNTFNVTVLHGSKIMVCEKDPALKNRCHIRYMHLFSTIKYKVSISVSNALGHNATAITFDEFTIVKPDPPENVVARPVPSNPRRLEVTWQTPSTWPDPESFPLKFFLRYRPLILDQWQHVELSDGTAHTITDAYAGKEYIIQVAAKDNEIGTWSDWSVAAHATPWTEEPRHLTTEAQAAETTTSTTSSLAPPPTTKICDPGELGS
The experiment can be described thus: competition with 125I-rat CNTF on MG87/CNTFR cells.

In experiment [2] the target is T2, rat CNTF receptor on rat superior cervical ganglia (SCG) neurons (rat, UniProt Q08406 23-342).
T2 construct: whole, on cells; Native neurons; also called rat receptor
T2 sequence (looked up): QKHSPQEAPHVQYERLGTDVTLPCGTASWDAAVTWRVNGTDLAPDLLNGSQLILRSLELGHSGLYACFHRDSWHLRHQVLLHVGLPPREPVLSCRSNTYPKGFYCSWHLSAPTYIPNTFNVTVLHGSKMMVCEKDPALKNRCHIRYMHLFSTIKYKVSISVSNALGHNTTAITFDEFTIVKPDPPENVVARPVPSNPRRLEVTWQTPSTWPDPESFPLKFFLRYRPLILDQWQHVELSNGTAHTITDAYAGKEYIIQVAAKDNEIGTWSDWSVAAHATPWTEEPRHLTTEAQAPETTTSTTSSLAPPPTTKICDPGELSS
Nature of the experiment: competition with 125I-rat CNTF on rat SCG neurons. As for the experimental part: Reactions were incubated for 45 min at 0° C. followed by 15 min at room temperature and terminated by the addition of […] of 0.2 M glycine solution. After 15 min, 0.2 ml PBS containing 0.08% gelatin was also added and the mixture was passed through a Superdex-75 column (Pharmacia) to separate the labelled monomeric CNTF from dimeric and other multimeric derivatives. Percentage of incorporation was typically 20%, as determined by thin layer chromatography and the specific activity was typically around 1,000 Ci/mmole. […] Growth medium consisted of Ham's nutrient mixture F12 with 10% heat-inactivated fetal bovine serum (Hyclone), nerve growth factor (NGF) (100 ng/ml), penicillin (50 U/ml) and streptomycin (50 µg/ml). Cultures were maintained at 37° C. in a humidified 95% air/5% CO_2 atmosphere. Ganglion non-neuronal cells were eliminated by treatment with araC (10 µM) on days 1 and 3 of culture. Cultures were fed 3 times/week and were routinely used for binding assays within 2 weeks.
Binding was performed directly on cell monolayers. Cells in culture wells were washed once with assay buffer consisting of phosphate buffered saline (PBS; pH 7.4), 0.1 mM bacitracin, 1 mM PMSF, 1 µg/ml leupeptin, and 1 mg/ml BSA. […] Non-specific binding was determined in the presence of 1,000-fold excess of unlabelled CNTF. […] Data were analyzed using the […] program (ISI, Philadelphia, Pa.).

What is called IC50 is the concentration that inhibits the measured activity by half. The low end stands for greater potency in that assay, the high end for weaker potency in that assay.

B1: recombinant rat CNTF (ciliary neurotrophic factor) (ligand)
chain: MAFAEQTPLTLHRRDLCSRSIWLARKIRSDLTALMESYVKHQGLNKNINLDSVDGVPVASTDRWSEMTEAELRQENLQAYRTFQGMLTKLLEDQRVHFTPTEGDFHQAIHTLMLQVSAFAYQLEELMVLLEQKIPENEADGMPATVGDGGLFEKKLWGLKVLQELSQWTVRSIHDLRVISSHQMGISALESHYGAKDKQM
notes: also called unlabelled rat CNTF
With B1, the IC50 is 2.8 nM in experiment [1] and 0.28 nM in experiment [2].

For the origin of these results see patent US6472178.
